Results published in patent publication US12215162B2, “BAFF-R targeted chimeric antigen receptor-modified T-cells and uses thereof” (CITY OF HOPE, priority 2016, dated 2025).

B1: Humanized HC1 + LC2: humanized C90 variant, heavy chain variant 1 with light chain variant 2 (antibody, V domains shown)
VH: QVQLQESGPGLVKPSQTLSLTCTVSGDSITSGYWNWIRQHPGKGLEYIGYISYSGSTYYNPSLKSRVTISRDTSKNQFSLKLSSVTAADTAVYYCASPNYPFYAMDYWGQGTLVTVSS
VL: DIVLTQSPATLSLSPGERATLSCRASESVDNYGISFMNWFQQKPGQAPRLLIYAASNRATGIPARFSGSGSGTDFTLTISSLEPEDFAVYYCQQSKEVPWTFGGGTKVEIKRTV
B2: Humanized HC1 + LC1 (antibody, V domains shown)
VH: QVQLQESGPGLVKPSQTLSLTCTVSGDSITSGYWNWIRQHPGKGLEYIGYISYSGSTYYNPSLKSRVTISRDTSKNQFSLKLSSVTAADTAVYYCASPNYPFYAMDYWGQGTLVTVSS
VL: EIVLTQSPATLSLSPGERATLSCRASESVDNYGISFLNWFQQKPGQAPRLLIYAASNRATGIPARFSGSGSGTDFTLTISSLEPEDFAVYYCQQSKEVPWTFGGGTKVEIKRTV
B3: Humanized HC2 + LC1 (antibody, V domains shown)
VH: EVQLQESGPGLVKPSQTLSLTCTVSGDSITSGYWNWIRQHPGKGLEYIGYISYSGSTYYNPSLKSRVTISRDTSKNQYSLKLSSVTAADTAVYYCASPNYPFYAMDYWGQGTLVTVSS
VL: EIVLTQSPATLSLSPGERATLSCRASESVDNYGISFLNWFQQKPGQAPRLLIYAASNRATGIPARFSGSGSGTDFTLTISSLEPEDFAVYYCQQSKEVPWTFGGGTKVEIKRTV
B4: Humanized HC3 + LC1 (antibody, V domains shown)
VH: EVQLQESGPGLVKPSETLSLTCSVSGDSITSGYWNWIRQPPGKGLEYIGYISYSGSTYYNPSLKSRVTISRDTSKNQYSLRLSSVTAADTALYYCASPNYPFYAMDYWGQGTRVTVSS
VL: EIVLTQSPATLSLSPGERATLSCRASESVDNYGISFLNWFQQKPGQAPRLLIYAASNRATGIPARFSGSGSGTDFTLTISSLEPEDFAVYYCQQSKEVPWTFGGGTKVEIKRTV
B5: Humanized HC1 + LC3: humanized C90 variant, heavy chain variant 1 with light chain variant 3 (antibody, V domains shown)
VH: QVQLQESGPGLVKPSQTLSLTCTVSGDSITSGYWNWIRQHPGKGLEYIGYISYSGSTYYNPSLKSRVTISRDTSKNQFSLKLSSVTAADTAVYYCASPNYPFYAMDYWGQGTLVTVSS
VL: DIVMTQSPSSLSASVGDRVTITCRASESVDNYGISFMNWFQQKPGKAPKLLIYAASNLGSGVPSRFSGSGSGTDFTLTISSLQPEDFATYYCQQSKEVPWTFGQGTKVEIKRTV
B6: Humanized HC3 + LC3: humanized C90 variant, heavy chain variant 3 with light chain variant 3 (antibody, V domains shown)
VH: EVQLQESGPGLVKPSETLSLTCSVSGDSITSGYWNWIRQPPGKGLEYIGYISYSGSTYYNPSLKSRVTISRDTSKNQYSLRLSSVTAADTALYYCASPNYPFYAMDYWGQGTRVTVSS
VL: DIVMTQSPSSLSASVGDRVTITCRASESVDNYGISFMNWFQQKPGKAPKLLIYAASNLGSGVPSRFSGSGSGTDFTLTISSLQPEDFATYYCQQSKEVPWTFGQGTKVEIKRTV
B7: Humanized HC3 + LC2: humanized C90 variant, heavy chain variant 3 with light chain variant 2 (antibody, V domains shown)
VH: EVQLQESGPGLVKPSETLSLTCSVSGDSITSGYWNWIRQPPGKGLEYIGYISYSGSTYYNPSLKSRVTISRDTSKNQYSLRLSSVTAADTALYYCASPNYPFYAMDYWGQGTRVTVSS
VL: DIVLTQSPATLSLSPGERATLSCRASESVDNYGISFMNWFQQKPGQAPRLLIYAASNRATGIPARFSGSGSGTDFTLTISSLEPEDFAVYYCQQSKEVPWTFGGGTKVEIKRTV

These molecules were tested against T1, recombinant extracellular domain of human BAFF-R (Homo sapiens, UniProt Q96RJ3) (assay: Biacore analysis of binding affinity of humanized BAFF-R antibody variants).
T1 construct: The antigen was commercial, recombinant extracellular domain of human BAFF-R; purchased
Text: The chimeric antibody, clone 90, was humanized while retaining its binding specificity and cytotoxic effects. Through computational analysis of the CDRs and predicted structure, three variants of the heavy and three variants of the light chain were produced with varying degrees of likeness to human antibodies. A total of nine combinational variants was constructed from the humanized heavy and light chains.
The chimeric anti-BAFF-R antibody C90 was humanized with several variants. The humanization process took into consideration and analysis of the variable region and specifically the CDRs of the chimeric antibody. From there, three variants for each heavy and light chain was developed with varying degrees of human-likeness ranging from 1 the most human to 3 the most conservative to the chimeric. The variants were combined to produce 9 variants. Biacore analysis was performed on each variant as well as the chimeric parental C90 to determine their equilibrium dissociation constant KD. The antigen was commercial, recombinant extracellular domain of human BAFF-R.
Molecule B1 has a kdis of 0.0023 s⁻¹ and a kon of 620000 M⁻¹ s⁻¹.
In the case of B2, the kdis is reported as 0.0024 s⁻¹ and the kon is reported as 610000 M⁻¹ s⁻¹.
For B3, the kdis was 0.002 s⁻¹ and the kon was 770000 M⁻¹ s⁻¹.
In the case of B4, the kdis is reported as 0.0031 s⁻¹ and the kon is reported as 820000 M⁻¹ s⁻¹.
For B5, the kdis was 0.0021 s⁻¹ and the kon was 410000 M⁻¹ s⁻¹.
Work on B6 yielded a kdis of 0.0023 s⁻¹ and a kon of 680000 M⁻¹ s⁻¹.
B7 showed a kdis of 0.0037 s⁻¹ and a kon of 1.2e+06 M⁻¹ s⁻¹.
